Results reported in the supplement of paper PMC5998384.

Experiments:
[1] = test system: HeLa Kyoto; experiment: melting temperature (median over replicates), in situ; higher = more thermally stable
[2] = test system: HeLa Kyoto; experiment: solubility in G1/S (NP-40 vs SDS abundance) (log2 ratio); higher = more soluble; settings: cell cycle stage: G1/S
[3] = test system: HeLa Kyoto; experiment: thermal stability score vs G1/S (z-score of summed log2 fold changes over temperatures); higher = more thermally stable than in G1/S
[4] = test system: HeLa Kyoto; experiment: solubility change mitosis vs G1/S (difference of NP-40 vs SDS log2 ratios) (log2 ratio difference); higher = more soluble in mitosis
[5] = cell cycle stage: early G1 (4.5 h after nocodazole release)
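Wherever melting temperature (median over replicates), in situ is given: HeLa Kyoto cells synchronized by double thymidine or nocodazole block, proteins quantified by TMT10plex mass spectrometry, three independent biological replicates.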
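Wherever solubility change mitosis vs G1/S (difference of NP-40 vs SDS log2 ratios) is given: synchronized HeLa Kyoto cells (double thymidine block for G1/S, nocodazole release for mitosis), protein amounts in NP-40 versus SDS lysates quantified by mass spectrometry, three biological replicates.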
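Wherever solubility in G1/S (NP-40 vs SDS abundance) is given: HeLa Kyoto cells arrested at G1/S by double thymidine block, proteins quantified by TMT10plex mass spectrometry in mild NP-40 versus SDS extracts, three biological replicates.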
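Wherever thermal stability score vs G1/S (z-score of summed log2 fold changes over temperatures) is given: synchronized HeLa Kyoto cells, proteins quantified by TMT10plex mass spectrometry, three biological replicates, mitosis taken 0.5 h after nocodazole release, G1/S directly after double thymidine block.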

| Sequence | melting temperature ([1]; cell cycle stage: G1/S) [°C] | melting temperature ([1]; cell cycle stage: mitosis) [°C] | solubility in G1/S (log2) [2] | thermal stability score [3, 5] | thermal stability score ([3]; cell cycle stage: mitosis) | solubility change mitosis (log2) [4] |
| --- | --- | --- | --- | --- | --- | --- |
| MAAEIHSRPQSSRPVLLSKIEGHQDAVTAALLIPKEDGVITASEDRTIRVWLKRDSGQYWPSIYHTMASPCSAMAYHHDSRRIFVGQDNGAVMEFHVSEDFNKMNFIKTYPAHQNRVSAIIFSLATEWVISTGHDKCVSWMCTRSGNMLGRHFFTSWASCLQYDFDTQYAFVGDYSGQITLLKLEQNTCSVITTLKGHEGSVACLWWDPIQRLLFSGASDNSIIMWDIGGRKGRTLLLQGHHDKVQSLCYLQLTRQLVSCSSDGGIAVWNMDVSREEAPQWLESDSCQKCEQPFFWNIKQMWDTKTLGLRQHHCRKCGQAVCGKCSSKRSSYPVMGFEFQVRVCDSCYDSIKDEDRTSLATFHEGKHNISHMSMDIARGLMVTCGTDRIVKIWDMTPVVGCSLATGFSPH [WDFY1] | 54.2 | 54.5 | -0.607 | 1.13 | -1.04 | -0.0745 |
| MAAERGAGQQQSQEMMEVDRRVESEESGDEEGKKHSSGIVADLSEQSLKDGEERGEEDPEEEHELPVDMETINLDRDAEDVDLNHYRIGKIEGFEVLKKVKTLCLRQNLIKCIENLEELQSLRELDLYDNQIKKIENLEALTELEILDISFNLLRNIEGVDKLTRLKKLFLVNNKISKIENLSNLHQLQMLELGSNRIRAIENIDTLTNLESLFLGKNKITKLQNLDALTNLTVLSMQSNRLTKIEGLQNLVNLRELYLSHNGIEVIEGLENNNKLTMLDIASNRIKKIENISHLTELQEFWMNDNLLESWSDLDELKGARSLETVYLERNPLQKDPQYRRKVMLALPSVRQIDATFVRF [PPP1R7] | 52.7 | 52.8 | 0.332 | -1.16 | -2.37 | 0.033 |
| MAAERQEALREFVAVTGAEEDRARFFLESAGWDLQIALASFYEDGGDEDIVTISQATPSSVSRGTAPSDNRVTSFRDLIHDQDEDEEEEEGQRFYAGGSERSGQQIVGPPRKKSPNELVDDLFKGAKEHGAVAVERVTKSPGETSKPRPFAGGGYRLGAAPEEESAYVAGEKRQHSSQDVHVVLKLWKSGFSLDNGELRSYQDPSNAQFLESIRRGEVPAELRRLAHGGQVNLDMEDHRDEDFVKPKGAFKAFTGEGQKLGSTAPQVLSTSSPAQQAENEAKASSSILIDESEPTTNIQIRLADGGRLVQKFNHSHRISDIRLFIVDARPAMAATSFILMTTFPNKELADESQTLKEANLLNAVIVQRLT [NSFL1C] | 51.7 | 52 | 0.384 | -1.97 | 1.13 | 0.0342 |
| MAAESALQVVEKLQARLAANPDPKKLLKYLKKLSTLPITVDILAETGVGKTVNSLRKHEHVGSFARDLVAQWKKLVPVERNAEPDEQDFEKSNSRKRPRDALQKEEEMEGDYQETWKATGSRSYSPDHRQKKHRKLSELERPHKVSHGHERRDERKRCHRMSPTYSSDPESSDYGHVQSPPSCTSPHQMYVDHYRSLEEDQEPIVSHQKPGKGHSNAFQDRLGASQERHLGEPHGKGVVSQNKEHKSSHKDKRPVDAKSDEKASVVSREKSHKALSKEENRRPPSGDNAREKPPSSGVKKEKDREGSSLKKKCLPPSEAASDNHLKKPKHRDPEKAKLDKSKQGLDSFDTGKGAGDLLPKVKEKGSNNLKTPEGKVKTNLDRKSLGSLPKVEETDMEDEFEQPTMSFESYLSYDQPRKKKKKIVKTSATALGDKGLKKNDSKSTGKNLDSVQKLPKVNKTKSEKPAGADLAKLRKVPDVLPVLPDLPLPAIQANYRPLPSLELISSFQPKRKAFSSPQEEEEAGFTGRRMNSKMQVYSGSKCAYLPKMMTLHQQCIRVLKNNIDSIFEVGGVPYSVLEPVLERCTPDQLYRIEEYNHVLIEETDQLWKVHCHRDFKEERPEEYESWREMYLRLQDAREQRLRVLTKNIQFAHANKPKGRQAKMAFVNSVAKPPRDVRRRQEKFGTGGAAVPEKIKIKPAPYPMGSSHASASSISFNPSPEEPAYDGPSTSSAHLAPVVSSTVSYDPRKPTVKKIAPMMAKTIKAFKNRFSRR [TCEB3] | 47.8 | 49.2 | -0.429 | 0.335 | 1.24 | 0.454 |
| MAAETRNVAGAEAPPPQKRYYRQRAHSNPMADHTLRYPVKPEEMDWSELYPEFFAPLTQNQSHDDPKDKKEKRAQAQVEFADIGCGYGGLLVELSPLFPDTLILGLEIRVKVSDYVQDRIRALRAAPAGGFQNIACLRSNAMKHLPNFFYKGQLTKMFFLFPDPHFKRTKHKWRIISPTLLAEYAYVLRVGGLVYTITDVLELHDWMCTHFEEHPLFERVPLEDLSEDPVVGHLGTSTEEGKKVLRNGGKNFPAIFRRIQDPVLQAVTSQTSLPGH [METTL1] | 52.4 | 54.7 | 0.231 | 0.937 | 2.85 | -0.075 |
